{"source": "patent US11738082B2", "about": "“High concentration protein formulations with reduced viscosity” (Bhami's Research Laboratory, Pvt. Ltd., priority 2017, dated 2023)", "key": {"Bevacizumab (AVASTIN®)": {"tested_on": "Bevacizumab (AVASTIN®)", "experiment": "Size Exclusion Chromatography of formulated Bevacizumab on storage", "format": "physicochemical", "conditions": "storage at 25° C., formulated with tryptophan + nicotinic acid (acid form), SEC", "method": "The collected protein sample was stored at 4° C. […] Reported protein concentrations represent the range of all protein samples in each Table or Figure. Specifically, reported values are the median plus or minus half the range. The protein concentrations were experimentally determined using the extinction coefficient of 1.54"}, "Rituximab (RITUXAN®) [1]": {"tested_on": "Rituximab (RITUXAN®)", "experiment": "Size Exclusion Chromatography of formulated Rituximab on storage", "format": "physicochemical", "conditions": "storage at 25° C., formulated with tryptophan + nicotinic acid (acid form), 250 mg/mL, SEC", "method": "The collected protein sample was stored at 4° C. […] The protein concentrations were experimentally determined using the extinction coefficient of 1.7"}, "Rituximab (RITUXAN®) [2]": {"tested_on": "Rituximab (RITUXAN®)", "experiment": "Percent reduction in aggregation of Rituximab by Size Exclusion Chromatography", "format": "physicochemical", "conditions": "with nicotinic acid and tryptophan, 250-275 mg/mL, versus control at 0 time point = 100%", "experimental": "To the buffered antibody solutions, different aggregation reducing-agents were added individually or in combination and mixed until complete dissolution. […] The collected protein sample was stored at 4° C. […] The amount of reduction in aggregation is calculated setting the values at 0 time point equal to 100% in control (without any aggregation-reducing agent) and the reduction in aggregation in test samples (with aggregation-reducing agent) is expressed as percent reduction when compared to control at 0 time point."}, "[3]": {"tested_on": "Human Gamma Globulin (HGG), GLOBUCEL®", "experiment": "Viscosity of aqueous solutions of Human Gamma Globulin (Cambridge VISCOlab5000 or DV2T cone and plate viscometer)", "conditions": "for Viscosity, cP: excipient 10 mg/mL, 25° C.", "method": "Commercially obtained human gamma globulin (HGG), GLOBUCEL® (50 mg/mL) containing pharmaceutical excipients (Maltose) was dialyzed against water for 24 hr at 4° C. with three changes. To the aqueous solution of HGG, either histidine or phosphate or citrate buffer was added from the stock concentration of 1000 mM for histidine buffer or 1000 mM for citrate buffer or 1000 mM for phosphate buffer, pH 6.0 to get a final concentration of 25 mM each. The HGG solutions in various buffers were concentrated to a final volume of less than 150 μL using Vivaspin centrifugal concentrators (Sartorius). The collected protein sample was stored at 4° C. […] The protein concentrations were experimentally determined using the extinction coefficient of 1.4\n[formula] at 280 nm. The viscosities of the solution were measured either using a Cambridge Viscometer, VISCOlab5000 using 70 μL of sample at 25° C. or using a DV2T cone and plate viscometer using 1.5 mL of sample at 25° C. at extrapolated zero shear rate.\nCommercially obtained human gamma globulin (HGG), GLOBUCEL® (50 mg/mL) containing pharmaceutical excipients (Maltose) was dialyzed against water for 24 hr at 4° C. with three changes. To the aqueous solution of HGG, either citrate-phosphate buffer pH 5.0 or citrate-phosphate buffer pH 6.0 or citrate-phosphate buffer pH 7.0 was added from the stock concentration of 1000 mM for citrate buffer at pH 5.0 or pH 6.0 or pH 7.0 to get a final concentration of 25 mM each. The HGG solutions in various pH buffers were concentrated to a final volume of less than 150 μL using Vivaspin centrifugal concentrators (Sartorius). The collected protein sample was stored at 4° C. […] The protein concentrations were experimentally determined using the extinction coefficient of 1.4\nCommercially obtained human gamma globulin (HGG), GLOBUCEL® (50 mg/mL) containing pharmaceutical excipients (Maltose) was dialyzed against water for 24 hr at 4° C. with three changes. To the aqueous solution of HGG, phosphate/citrate/histidine Buffer was added from the stock concentration of 1000 mM phosphate/citrate/histidine buffer, pH 6.0 to get a final concentration of 25 mM. To the buffered HGG different amino acid or its derivative was added individually and mixed until complete dissolution. The excipient containing HGG was concentrated to a final volume of less than 150 μL using Vivaspin centrifugal concentrators (Sartorius). The collected protein sample was stored at 4° C. […] The protein concentrations were experimentally determined using the extinction coefficient of 1.4\nCommercially obtained human gamma globulin (HGG), GLOBUCEL® (50 mg/mL) containing pharmaceutical excipients (Maltose) was dialyzed against water for 24 hr at 4° C. with three changes. To the aqueous solution of HGG, phosphate/citrate/histidine Buffer was added from the stock concentration of 1000 mM phosphate/citrate/histidine buffer, pH 6.0 to get a final concentration of 25 mM. To the buffered HGG, different nucleosides or nucleotides or its derivative was added individually and mixed until complete dissolution. The excipient containing HGG was concentrated to a final volume of less than 150 μL using Vivaspin centrifugal concentrators (Sartorius). The collected protein sample was stored at 4° C."}, "Etanercept (ENBREL®)": {"target": "T1, Etanercept (ENBREL®) (Homo sapiens, UniProt P20333)", "T1 construct": "purchased ENBREL®", "T1 sequence (P20333 with tags, fused parts or gaps limits assumed)": "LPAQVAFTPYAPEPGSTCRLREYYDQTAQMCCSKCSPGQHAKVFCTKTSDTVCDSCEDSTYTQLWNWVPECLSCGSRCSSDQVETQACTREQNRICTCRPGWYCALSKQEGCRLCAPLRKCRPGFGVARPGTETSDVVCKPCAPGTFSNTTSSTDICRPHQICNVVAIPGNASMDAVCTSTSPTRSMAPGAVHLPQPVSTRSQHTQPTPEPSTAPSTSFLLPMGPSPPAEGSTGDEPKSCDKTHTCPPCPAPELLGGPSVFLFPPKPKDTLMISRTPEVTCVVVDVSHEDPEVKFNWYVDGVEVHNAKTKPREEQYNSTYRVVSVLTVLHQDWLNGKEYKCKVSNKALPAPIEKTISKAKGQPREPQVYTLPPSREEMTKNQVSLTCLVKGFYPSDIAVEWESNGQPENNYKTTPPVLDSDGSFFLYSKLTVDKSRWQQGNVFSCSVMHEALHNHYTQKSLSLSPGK", "experiment": "Viscosity of Etanercept solutions (VISCOlab5000 or DV2T cone and plate viscometer)", "format": "physicochemical", "conditions": "for Viscosity, cP: 25 mM phosphate buffer pH 6.0, 25° C.", "experimental": "Commercially obtained Etanercept, ENBREL®, 25 mg as a lyophilized powder (25 mg Etanercept, 40 mg mannitol, 10 mg sucrose, and 1.2 mg Tromethamine and for reconstitution 0.9% benzyl alcohol in water) was dialyzed against 25 mM phosphate buffer, pH 6.0 for 24 hr at 4° C. with three changes. To the dialysed Etanercept different viscosity-reducing agent(s) was added individually or in combination and mixed until complete dissolution. […] The collected protein sample was stored at 4° C.\n[formula] at 280 nm. […] Results\nCommercially obtained Etanercept, ENBREL®, 25 mg as a lyophilized powder (25 mg Etanercept, 40 mg mannitol, 10 mg sucrose, and 1.2 mg Tromethamine and for reconstitution 0.9% benzyl alcohol in water) was dialyzed against 25 mM phosphate buffer, pH 6.0 for 24 hr at 4° C. with three changes.\nTo the dialysed samples of above protein agents, a combination of viscosity-reducing agents nicotinic acid (acid form) and tryptophan were added and mixed until complete dissolution. […] The collected protein samples were stored at 4° C."}}, "note": "Residues, ends and D or L forms follow the SMILES beside them."}
{"compound": "Bevacizumab: Commercially obtained Bevacizumab, AVASTIN®, dialyzed against 25 mM phosphate buffer, pH 6.0", "values": [{"measurement": "Degradation peak area (%)", "setting": "Bevacizumab (AVASTIN®); 0 day", "value": "Nil"}, {"measurement": "Standard peak area (%)", "setting": "Bevacizumab (AVASTIN®); 0 day", "value": 99.39, "unit": "%"}, {"measurement": "Degradation peak area (%)", "setting": "Bevacizumab (AVASTIN®); 7 days", "value": "Nil"}, {"measurement": "Standard peak area (%)", "setting": "Bevacizumab (AVASTIN®); 7 days", "value": 99.118, "unit": "%"}]}
{"compound": "Rituximab: Commercially obtained Rituximab, RITUXAN®, dialyzed against 25 mM phosphate buffer, pH 6.0", "values": [{"measurement": "Aggregation peak area (%)", "setting": "Rituximab (RITUXAN®) [1]; 0 day", "value": 1.027, "unit": "%"}, {"measurement": "Degradation peak area (%)", "setting": "Rituximab (RITUXAN®) [1]; 0 day", "value": "Nil"}, {"measurement": "Aggregation peak area (%)", "setting": "Rituximab (RITUXAN®) [1]; 7 days", "value": 0.96, "unit": "%"}, {"measurement": "Degradation peak area (%)", "setting": "Rituximab (RITUXAN®) [1]; 7 days", "value": "Nil"}, {"measurement": "Percent reduction in aggregation", "setting": "Rituximab (RITUXAN®) [2]; After 24 hours", "value": 90, "unit": "%"}, {"measurement": "Percent reduction in aggregation", "setting": "Rituximab (RITUXAN®) [2]; After 48 hours", "value": 100, "unit": "%"}]}
{"compound": "NC(=O)c1cccnc1", "note": "[Nicotinamide]", "values": [{"measurement": "Viscosity (cP) @ 25° C.", "setting": "[3]; HGG 105 mg/mL, excipient 10 mg/mL (82 mM), 25 mM histidine buffer pH 6.0", "value": 26, "unit": "cP"}, {"measurement": "Viscosity (cP) @ 25° C.", "setting": "[3]; HGG 191 mg/mL, excipient 10 mg/mL (82 mM), 25 mM phosphate buffer pH 6.0", "value": 21, "unit": "cP"}, {"measurement": "Viscosity (cP) @ 25° C.", "setting": "[3]; HGG 219 mg/mL, excipient 10 mg/mL (82 mM), 25 mM citrate buffer pH 6.0", "value": 72, "unit": "cP"}, {"measurement": "Viscosity, cP", "setting": "[3]; HGG 220 mg/mL, citrate buffer pH 6.0", "value": 72, "unit": "cP"}, {"measurement": "Viscosity, cP", "setting": "[3]; HGG 220 mg/mL, histidine buffer pH 6.0", "value": 43, "unit": "cP"}, {"measurement": "Viscosity, cP", "setting": "[3]; HGG 220 mg/mL, phosphate buffer pH 6.0", "value": 49, "unit": "cP"}, {"measurement": "Viscosity (cP) @ 25° C.", "setting": "[3]; HGG 224 mg/mL, excipient 10 mg/mL (82 mM), 25 mM histidine buffer pH 6.0", "value": 43, "unit": "cP"}, {"measurement": "Viscosity (cP) @ 25° C.", "setting": "[3]; HGG 250 mg/mL, excipient 10 mg/mL (82 mM), 25 mM phosphate buffer pH 6.0", "value": 76, "unit": "cP"}]}
{"compound": "O=C(O)[C@@H]1CCCN1", "note": "[Proline]", "values": [{"measurement": "Viscosity (cP) @ 25° C.", "setting": "[3]; HGG […], excipient 10 mg/mL (87 mM), 25 mM citrate buffer pH 6.0", "value": 55, "unit": "cP"}, {"measurement": "Viscosity (cP) @ 25° C.", "setting": "[3]; HGG […], excipient 10 mg/mL (87 mM), 25 mM phosphate buffer pH 6.0", "value": 68, "unit": "cP"}]}
{"compound": "Nc1ccn([C@@H]2O[C@H](CO)[C@@H](O)[C@H]2O)c(=O)n1", "note": "[Cytidine]", "values": [{"measurement": "Viscosity (cP) @ 25° C.", "setting": "[3]; HGG 218 mg/mL, excipient 10 mg/mL (41 mM), 25 mM phosphate buffer pH 6.0", "value": 203, "unit": "cP"}]}
{"compound": "N=C(N)NCCC[C@H](N)C(=O)O", "note": "[Arginine]", "values": [{"measurement": "Viscosity (cP) @ 25° C.", "setting": "[3]; HGG 205 mg/mL, excipient 10 mg/mL (58 mM), 25 mM phosphate buffer pH 6.0", "value": 85, "unit": "cP"}, {"measurement": "Viscosity (cP) @ 25° C.", "setting": "[3]; HGG 220 mg/mL, excipient 10 mg/mL (58 mM), 25 mM phosphate buffer pH 6.0", "value": 197, "unit": "cP"}, {"measurement": "Viscosity (cP) @ 25° C.", "setting": "[3]; HGG 247 mg/mL, excipient 10 mg/mL (58 mM), 25 mM citrate buffer pH 6.0", "value": 87, "unit": "cP"}]}
{"compound": "COC(=O)[C@H](Cc1ccccc1)NC(=O)[C@@H](N)CC(=O)O", "note": "[Aspartame] (H-Asp-Phe-OMe)", "values": [{"measurement": "Viscosity (cP) @ 25° C.", "setting": "[3]; HGG 140 mg/mL, excipient 10 mg/mL (34 mM), 25 mM citrate buffer pH 6.0", "value": 51, "unit": "cP"}, {"measurement": "Viscosity (cP) @ 25° C.", "setting": "[3]; HGG 218 mg/mL, excipient 10 mg/mL (34 mM), 25 mM phosphate buffer pH 6.0", "value": 143, "unit": "cP"}]}
{"compound": "N=C(N)NCCCC[C@H](N)C(=O)O", "note": "[Homoarginine]", "values": [{"measurement": "Viscosity (cP) @ 25° C.", "setting": "[3]; HGG 188 mg/mL, excipient 10 mg/mL (45 mM), 25 mM phosphate buffer pH 6.0", "value": 28, "unit": "cP"}]}
{"compound": "Etanercept", "values": [{"measurement": "Viscosity, cP", "setting": "Etanercept (ENBREL®); Etanercept 50 mg/mL, with 10 mg/mL nicotinic acid (acid form) + 6 mg/mL tryptophan", "value": 2, "unit": "cP"}, {"measurement": "Viscosity, cP", "setting": "Etanercept (ENBREL®); Etanercept 50 mg/mL, without excipient", "value": 35, "unit": "cP"}, {"measurement": "Viscosity, cP", "setting": "Etanercept (ENBREL®); Etanercept 100 mg/mL, with 10 mg/mL nicotinic acid (acid form) + 6 mg/mL tryptophan", "value": 3, "unit": "cP"}, {"measurement": "Viscosity, cP", "setting": "Etanercept (ENBREL®); Etanercept 100 mg/mL, without excipient", "value": 72, "unit": "cP"}, {"measurement": "Viscosity, cP", "setting": "Etanercept (ENBREL®); Etanercept 150 mg/mL, with 10 mg/mL nicotinic acid (acid form) + 6 mg/mL tryptophan", "value": 11, "unit": "cP"}, {"measurement": "Viscosity, cP", "setting": "Etanercept (ENBREL®); Etanercept 150 mg/mL, without excipient", "value": 135, "unit": "cP"}, {"measurement": "Viscosity, cP", "setting": "Etanercept (ENBREL®); Etanercept 175 mg/mL, with 10 mg/mL nicotinic acid (acid form) + 6 mg/mL tryptophan", "value": 17, "unit": "cP"}, {"measurement": "Viscosity, cP", "setting": "Etanercept (ENBREL®); Etanercept 175 mg/mL, without excipient", "value": 160, "unit": "cP"}, {"measurement": "Viscosity, cP", "setting": "Etanercept (ENBREL®); Etanercept 200 mg/mL, with 10 mg/mL nicotinic acid (acid form) + 6 mg/mL tryptophan", "value": 23, "unit": "cP"}, {"measurement": "Viscosity, cP", "setting": "Etanercept (ENBREL®); Etanercept 200 mg/mL, without excipient", "value": 230, "unit": "cP"}, {"measurement": "Viscosity, cP", "setting": "Etanercept (ENBREL®); Etanercept 225 mg/mL, with 10 mg/mL nicotinic acid (acid form) + 6 mg/mL tryptophan", "value": 40, "unit": "cP"}, {"measurement": "Viscosity, cP", "setting": "Etanercept (ENBREL®); Etanercept 225 mg/mL, without excipient", "value": 345, "unit": "cP"}, {"measurement": "Viscosity, cP", "setting": "Etanercept (ENBREL®); Etanercept 250 mg/mL, with 10 mg/mL nicotinic acid (acid form) + 6 mg/mL tryptophan", "value": 65, "unit": "cP"}, {"measurement": "Viscosity, cP", "setting": "Etanercept (ENBREL®); Etanercept 250 mg/mL, without excipient", "value": 439, "unit": "cP"}, {"measurement": "Viscosity, cP", "setting": "Etanercept (ENBREL®); Etanercept 275 mg/mL, with 10 mg/mL nicotinic acid (acid form) + 6 mg/mL tryptophan", "value": 77, "unit": "cP"}, {"measurement": "Viscosity, cP", "setting": "Etanercept (ENBREL®); Etanercept 275 mg/mL, without excipient", "value": 1130, "unit": "cP"}, {"measurement": "Viscosity, cP", "setting": "Etanercept (ENBREL®); Etanercept 300 mg/mL, with 10 mg/mL nicotinic acid (acid form) + 6 mg/mL tryptophan", "value": 139, "unit": "cP"}, {"measurement": "magnitude of viscosity-reducing effects", "setting": "Etanercept (ENBREL®); Etanercept 275±10 mg/mL, nicotinic acid (acid form) and tryptophan added to phosphate buffer", "value": 14.6, "unit": "fold"}]}
{"compound": "CSCC[C@H](N)C(=O)O", "note": "[Methionine]", "values": [{"measurement": "Viscosity (cP) @ 25° C.", "setting": "[3]; HGG 228 mg/mL, excipient 10 mg/mL (67 mM), 25 mM phosphate buffer pH 6.0", "value": 170, "unit": "cP"}]}
